Consider five substances from the supplement of paper PMC5998384.

In series [1] the test system is HeLa Kyoto. Description: solubility in G1/S (NP-40 vs SDS abundance) (log2 ratio); higher = more soluble. To be noted: cell cycle stage: G1/S.
The test system of series [2] is HeLa Kyoto. In words: melting temperature (median over replicates), in situ; higher = more thermally stable.
Series [3] has as its system HeLa Kyoto. In words: solubility change mitosis vs G1/S (difference of NP-40 vs SDS log2 ratios) (log2 ratio difference); higher = more soluble in mitosis.
Series [4] has as its system HeLa Kyoto. In words: thermal stability score vs G1/S (z-score of summed log2 fold changes over temperatures); higher = more thermally stable than in G1/S.
The mark [5] stands for this setting: cell cycle stage: early G1 (4.5 h after nocodazole release).
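Wherever melting temperature (median over replicates), in situ is given: HeLa Kyoto cells synchronized by double thymidine or nocodazole block, proteins quantified by TMT10plex mass spectrometry, three independent biological replicates.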
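Wherever solubility change mitosis vs G1/S (difference of NP-40 vs SDS log2 ratios) is given: synchronized HeLa Kyoto cells (double thymidine block for G1/S, nocodazole release for mitosis), protein amounts in NP-40 versus SDS lysates quantified by mass spectrometry, three biological replicates.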
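Wherever solubility in G1/S (NP-40 vs SDS abundance) is given: HeLa Kyoto cells arrested at G1/S by double thymidine block, proteins quantified by TMT10plex mass spectrometry in mild NP-40 versus SDS extracts, three biological replicates.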
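Wherever thermal stability score vs G1/S (z-score of summed log2 fold changes over temperatures) is given: synchronized HeLa Kyoto cells, proteins quantified by TMT10plex mass spectrometry, three biological replicates, mitosis taken 0.5 h after nocodazole release, G1/S directly after double thymidine block.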

“MSEASSEDLVPPLEAGAAPYREEEEAAKKKKEKKKKSKGLANVFCVFTKGKKKKGQPSSAEPEDAAGSRQGLDGPPPTVEELKAALERGQLEAARPLLALERELAAAAAAGGVSEEELVRRQSKVEALYELLRDQVLGVLRRPLEAPPERLRQALAVVAEQEREDRQAAAAGPGTSGLAATRPRRWLQLWRRGVAEAAEERMGQRPAAGAEVPESVFLHLGRTMKEDLEAVVERLKPLFPAEFGVVAAYAESYHQHFAAHLAAVAQFELCERDTYMLLLWVQNLYPNDIINSPKLVGELQGMGLGSLLPPRQIRLLEATFLSSEAANVRELMDRALELEARRWAEDVPPQRLDGHCHSELAIDIIQITSQAQAKAESITLDLGSQIKRVLLVELPAFLRSYQRAFNEFLERGKQLTNYRANVIANINNCLSFRMSMEQNWQVPQDTLSLLLGPLGELKSHGFDTLLQNLHEDLKPLFKRFTHTRWAAPVETLENIIATVDTRLPEFSELQGCFREELMEALHLHLVKEYIIQLSKGRLVLKTAEQQQQLAGYILANADTIQHFCTQHGSPATWLQPALPTLAEIIRLQDPSAIKIEVATYATCYPDFSKGHLSAILAIKGNLSNSEVKRIRSILDVSMGAQEPSRPLFSLIKVG [TNFAIP2]”: the “solubility in G1/S (log2)” value in the series on HeLa Kyoto [1] is 0.296. Also, the melting temperature in the series with HeLa Kyoto [2] (cell cycle stage: G1/S) came out at 50.4 °C; in the series on HeLa Kyoto [2] (cell cycle stage: mitosis) it was 48.2 °C. In addition, the “solubility change mitosis (log2)” value in the series on HeLa Kyoto [3] was -0.0517. For the same substance, the thermal stability score came to 0.545 with HeLa Kyoto [4] (setting [5]) and 1.06 in the series with HeLa Kyoto [4] (cell cycle stage: mitosis).
Consider “MFWKFDLHTSSHLDTLLEREDLSLPELLDEEDVLQECKVVNRKLLDFLLQPPHLQAMVAWVTQEPPDSGEERLRYKYPSVACEILTSDVPQINDALGADESLLNRLYGFLQSTGSLNPLLASFFSKVMGILINRKTDQLVSFLRKKDDFVDLLLQHIGTSAIMDLLLRLLTCVERPQLRQDVVNWLNEEKIVQRLIEQIHPSKDENQHSNASQSLCDIIRLSREQMIQVQDSPEPDQLLATLEKQETIEQLLSNMFEGEQSQSVIVSGIQVLLTLLEPRRPRSESVTVNSFFSSVDGQLELLAQGALESTVSSVGALHALRPRLSCFHQLLLEPPKLEPLQMTWGMLAPPLGNTRLHVVKLLASALSANDAALTHELLALDVPNTMLDLFFHYVFNNFLHAQVEGCVSTMLSLGPPPDSSPETPIQNPVVKHLLQQCRLVERILTSWEENDRVQCAGGPRKGYMGHLTRVAGALVQNTEKGPNAEQLRQLLKELPSEQQEQWEAFVSGPLAETNKKNMVDLVNTHHLHSSSDDEDDRLKEFNFPEEAVLQQAFMDFQMQRMTSAFIDHFGFNDEEFGEQEESVNAPFDKTANITFSLNADDENPNANLLEICYKDRIQQFDDDEEEEDEEEAQGSGESDGEDGAWQGSQLARGARLGQPPGVRSGGSTDSEDEEEEDEEEEEDEEGIGCAARGGATPLSYPSPGPQPPGPSWTATFDPVPTDAPTSPRVSGEEELHTGPPAPQGPLSVPQGLPTQSLASPPARDALQLRSQDPTPPSAPQEATEGSKVTEPSAPCQALVSIGDLQATFHGIRSAPSSSDSATRDPSTSVPASGAHQPPQTTEGEKSPEPLGLPQSQSAQALTPPPIPNGSAPEGPASPGSQ [PPP6R1]”, for which the “solubility in G1/S (log2)” value in the series on HeLa Kyoto [1] was found to be 0.169. Moreover, the melting temperature in the series on HeLa Kyoto [2] (cell cycle stage: G1/S) was determined as 53.1 °C; in the series on HeLa Kyoto [2] (cell cycle stage: mitosis), 50.6 °C. The “solubility change mitosis (log2)” value in the series with HeLa Kyoto [3] is -0.0433. The results for the thermal stability score with HeLa Kyoto [4] (setting [5]) and with HeLa Kyoto [4] (cell cycle stage: mitosis) were -1.2 and -0.743, respectively.
For the substance “MLRAKNQLFLLSPHYLRQVKESSGSRLIQQRLLHQQQPLHPEWAALAKKQLKGKNPEDLIWHTPEGISIKPLYSKRDTMDLPEELPGVKPFTRGPYPTMYTFRPWTIRQYAGFSTVEESNKFYKDNIKAGQQGLSVAFDLATHRGYDSDNPRVRGDVGMAGVAIDTVEDTKILFDGIPLEKMSVSMTMNGAVIPVLANFIVTGEEQGVPKEKLTGTIQNDILKEFMVRNTYIFPPEPSMKIIADIFEYTAKHMPKFNSISISGYHMQEAGADAILELAYTLADGLEYSRTGLQAGLTIDEFAPRLSFFWGIGMNFYMEIAKMRAGRRLWAHLIEKMFQPKNSKSLLLRAHCQTSGWSLTEQDPYNNIVRTAIEAMAAVFGGTQSLHTNSFDEALGLPTVKSARIARNTQIIIQEESGIPKVADPWGGSYMMECLTNDVYDAALKLINEIEEMGGMAKAVAEGIPKLRIEECAARRQARIDSGSEVIVGVNKYQLEKEDAVEVLAIDNTSVRNRQIEKLKKIKSSRDQALAERCLAALTECAASGDGNILALAVDASRARCTVGEITDALKKVFGEHKANDRMVSGAYRQEFGESKEITSAIKRVHKFMEREGRRPRLLVAKMGQDGHDRGAKVIATGFADLGFDVDIGPLFQTPREVAQQAVDADVHAVGISTLAAGHKTLVPELIKELNSLGRPDILVMCGGVIPPQDYEFLFEVGVSNVFGPGTRIPKAAVQVLDDIEKCLEKKQQSV [MUT]”, the “solubility in G1/S (log2)” value in the series with HeLa Kyoto [1] worked out at 0.0667. Moreover, the melting temperature in the series on HeLa Kyoto [2] (cell cycle stage: G1/S) came to 50.6 °C; in the series on HeLa Kyoto [2] (cell cycle stage: mitosis) it was 50.3 °C. Further, the “solubility change mitosis (log2)” value in the series with HeLa Kyoto [3] was -0.0993. Further, the thermal stability score with HeLa Kyoto [4] (setting [5]) is -0.0875; with HeLa Kyoto [4] (cell cycle stage: mitosis), 0.531.
Consider “MAAPGPALCLFDVDGTLTAPRQKITKEMDDFLQKLRQKIKIGVVGGSDFEKVQEQLGNDVVEKYDYVFPENGLVAYKDGKLLCRQNIQSHLGEALIQDLINYCLSYIAKIKLPKKRGTFIEFRNGMLNVSPIGRSCSQEERIEFYELDKKENIRQKFVADLRKEFAGKGLTFSIGGQISFDVFPDGWDKRYCLRHVENDGYKTIYFFGDKTMPGGNDHEIFTDPRTMGYSVTAPEDTRRICELLFS [PMM2]”, for which the “solubility in G1/S (log2)” value with HeLa Kyoto [1] was 0.526. Also, the melting temperature in the series with HeLa Kyoto [2] (cell cycle stage: G1/S) is 53 °C; in the series with HeLa Kyoto [2] (cell cycle stage: mitosis), 53.3 °C. The “solubility change mitosis (log2)” value in the series with HeLa Kyoto [3] was -0.0066. Moreover, the thermal stability score turned out to be 12.5 with HeLa Kyoto [4] (setting [5]) and 3.25 in the series on HeLa Kyoto [4] (cell cycle stage: mitosis).
For the substance TRIO, the “solubility in G1/S (log2)” value with HeLa Kyoto [1] was -0.25. The results for the melting temperature in the series on HeLa Kyoto [2] (cell cycle stage: G1/S) and in the series with HeLa Kyoto [2] (cell cycle stage: mitosis) were 48.9 °C and 49.5 °C, respectively. For the same substance, the “solubility change mitosis (log2)” value in the series on HeLa Kyoto [3] was -0.0514. The thermal stability score in the series on HeLa Kyoto [4] (setting [5]) was -0.165; in the series on HeLa Kyoto [4] (cell cycle stage: mitosis), 0.739.
